Data taken from the supplement of paper PMC10567573.
± gives the standard deviation.

Assay: protein stability index of a GFP-peptide fusion (GPS, HEK-293T) (PSI 1-6); higher = more stable
[1] = treatment: DMSO, c terminus: a fixed tail appended
[2] = treatment: MLN4924 1 uM, 8 h, c terminus: a fixed tail appended
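Further: 24-mer peptide tiles fused after GFP, lentivirally expressed, FACS-sorted into six equal bins by GFP/DsRed ratio, decoded by Illumina sequencing, PSI is the read-weighted mean bin number.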

Sequence | protein stability index [1] | protein stability index [2] | protein stability index (treatment: DMSO, c terminus: native) | protein stability index (treatment: MLN4924 1 uM, 8 h, c terminus: native)
PSGEEEAKVGPGLPDGCQPLQLLR [CBY2] | 4.75 ± 0.22 | 4.79 ± 0.27 | – | –
PSGNNGSVNWRTGSFHGPGHISLR [DLC1] | 3.09 ± 0.18 | 3.01 ± 0.19 | – | –
PSHGEVGEHKDRIERQWGNLLGEG [ZSCAN9] | 4.47 ± 0.19 | 4.47 ± 0.36 | – | –
PSNSSSLTLSGIKEDNSLLNQGFL [MYBL2] | 3.57 ± 0.35 | 3.81 ± 0.45 | – | –
PSSNNKELFYRVNYIGTKNVIETC [NSDHL] | 2.7 ± 0.2 | 2.55 ± 0.18 | – | –
PTLDAPGGRALVVRKVPPGYSIKV [SMAD6] | 2.83 ± 0.17 | 3.17 ± 0.19 | – | –
PTQEEWRQVVDILWSDPMAQEGCK [PPEF2] | 3.96 ± 0.39 | 4.21 ± 0.079 | – | –
PVRCAGDWLPRGLGWGGRGAAVCA [ALG2] | 2.57 ± 0.36 | 2.25 ± 0.27 | – | –
PVRPVSRGCLHSHGLQEGKDLFTQ [CDC25A] | 3.15 ± 0.33 | 3.21 ± 0.13 | – | –
PVVKKKGVKRKADTTTPTTSAITA [BRD3] | 5.03 ± 0.29 | 5.01 ± 0.19 | – | –
QAEFTAMRDQYMRAGEGFIICYSI [RIT1] | 3.38 ± 0.48 | 3.04 ± 0.8 | – | –
QALQAKASLTIPLVPETEDDRKLA [YJU2B] | 5.16 ± 0.24 | 5.24 ± 0.11 | – | –
QAQIDQYLGLVRTHINAVVAKIQA [RTN1] | 2.08 ± 0.35 | 2.35 ± 0.28 | – | –
QCMQPNNIMGIENICELAARMLFS [NR2F2] | 2.45 ± 0.68 | 2.49 ± 0.36 | – | –
QDLDSRLRAGSSEFDSEHNLTSNE [RASAL3] | 5.52 ± 0.29 | 5.42 ± 0.19 | – | –
QEAKLLHWNGRHKPWDFPSVHNDL [GLT8D2] | 3.11 ± 0.19 | 2.9 ± 0.28 | – | –
QELLDTVLVNLVPAHKNLNKQAYD [PDS5B] | 2.95 ± 0.34 | 3.02 ± 0.3 | – | –
QETAKEEDGSVELESQVQKDGVAD [C18orf25] | 5.55 ± 0.24 | 5.61 ± 0.34 | – | –
QFHKQIAVMRGQILNLTQALKDNK [PI4K2A] | 2.5 ± 0.36 | 2.8 ± 0.35 | – | –
QGQPVVNRPLSLKDQQTFARSVGL [TRADD] | 3.67 ± 0.35 | 3.9 ± 0.12 | – | –
QGYVSDIRRFLSAFHEPQVGLIQA [DFFB] | 2.15 ± 0.47 | 2.38 ± 0.17 | – | –
QILPVLDFCKVFLISGVTLDNCVE [KLHL13] | 3.21 ± 0.41 | 2.49 ± 0.064 | – | –

Sequence | protein stability index [1] | protein stability index [2] | protein stability index (treatment: DMSO, c terminus: native) | protein stability index (treatment: MLN4924 1 uM, 8 h, c terminus: native)
QIVLLKSSAIEVIMLRSNESFTMD [VDR] | 2.6 ± 0.7 | 2.44 ± 0.4 | – | –
QKLIVNLKPEKSYSFVLTNRGNSA [PTPRD] | 2.58 ± 0.36 | 2.58 ± 0.13 | – | –
QKPLCASDGRTFLSRCEFQRAKCK [SMOC2] | 3.14 ± 0.52 | 3.6 ± 0.88 | – | –
QLDIEEEGRPGAATFHVGGGPAQN [TFE3] | 5.26 ± 0.31 | 5.16 ± 0.32 | – | –
QLKAVHEQLAALSQAPVNKPKKKK [BRD3] | 4.51 ± 0.44 | 4.6 ± 0.19 | – | –
QLLARRMQVDKKRVYLATDDPSLL [FUT8] | 2.61 ± 0.23 | 2.92 ± 0.27 | – | –
QLPIDRGGGEGKAMYIDTEGTFRP [RAD51] | 4.16 ± 0.15 | 4.05 ± 0.24 | – | –
QLRATAGSLILPPGPGGTMKRHSS [FCHO1] | 3.87 ± 0.16 | 3.91 ± 0.33 | – | –
QLYTAYILENRPPGSLLCTVAASD [PCDHGC5] | 2.11 ± 0.24 | 2.18 ± 0.26 | – | –
QNLCKGLSQPTTNLVAGCLQLNAR [NEUROD6] | 2.97 ± 0.2 | 3.15 ± 0.23 | – | –
QNLNDRLASYLEKVRALEEANADL [KRT13] | 4.13 ± 0.17 | 3.98 ± 0.39 | – | –
QNPTASYYNVVLLRYQFSRPGPQS [FCHO1] | 2.44 ± 0.46 | 2.41 ± 0.27 | – | –
QPPAITQVHRQGERRRELVRSQTL [SMTNL2] | 4.19 ± 0.39 | 4.57 ± 0.33 | – | –
QPPDMASALTDRTSRAPSTYTYTS [RSPH3] | 4.39 ± 0.17 | 4.51 ± 0.15 | – | –
QPSFPEILLESHMVMIRGNSGLKP [POMT2] | 2.79 ± 0.3 | 3.07 ± 0.21 | – | –
QRDSKCKVKWTHEEDEQLRALVRQ [MYBL2] | 4.25 ± 0.33 | 4.02 ± 0.24 | – | –
QRGALPAPDPELAAEMYQRGRAVL [RSAD1] | 4.36 ± 0.18 | 4.38 ± 0.17 | – | –
QRSHMGKLKEPQPQDHKPGLGAS | – | – | 3.13 ± 0.88 | 3.63 ± 0.56
QSQSLRDRARRFEEALRKNTEEQL [MTUS2] | 4.88 ± 0.28 | 5.06 ± 0.18 | – | –
QTTYLEDRPMFMLQCAMEENCLSA [LOXL2] | 2.38 ± 0.59 | 2.33 ± 0.43 | – | –
QVENWSAFAPDFKELDENVEYEER [RBBP5] | 5.05 ± 0.36 | 5.15 ± 0.48 | – | –
QVTMRGLLSCLSKSNNRLKSLSIQ [FBXO39] | 2.21 ± 0.11 | 2.07 ± 0.21 | – | –

Sequence | protein stability index [1] | protein stability index [2] | protein stability index (treatment: DMSO, c terminus: native) | protein stability index (treatment: MLN4924 1 uM, 8 h, c terminus: native)
QYEKYSFRGFPPEDLMPLAAAYGH [P3H4] | 3.01 ± 0.4 | 2.55 ± 0.57 | – | –
QYFVVDPMAEYNMPQYILREFKVT [PTPRD] | 2.48 ± 0.56 | 2.15 ± 0.16 | – | –
RAALICLTLVLVASVLLQAVLYPR [CD207] | 2.44 ± 0.55 | 2.59 ± 0.53 | – | –
RADCASESACSSDSLDEARSSGSE [PWWP2B] | 5.42 ± 0.3 | 5.53 ± 0.26 | – | –
RAKDFLPADIQAQFAISRELIRNI [SNX8] | 2.38 ± 0.18 | 2.48 ± 0.24 | – | –
RAKVKTDDIARIYQPKRYALSPKT [FAM98B] | 3.4 ± 0.26 | 3.5 ± 0.13 | – | –
RASALCDRHTKFFEEPEDPSNRSF [PPP2R2B] | 4.38 ± 0.19 | 4.49 ± 0.25 | – | –
RASYSDGKLKAPPKPCAGNQGTQI [MLH1] | 4.05 ± 0.53 | 4.17 ± 0.14 | – | –
RCINDPYLEVLETMDNKKGRRYEA [CLCN6] | 3.82 ± 0.15 | 4.03 ± 0.32 | – | –
RDEAIYECVASNNVGEISVSTRLT [PTPRD] | 4.03 ± 0.34 | 3.91 ± 0.23 | – | –
RDPSLRPARTVLVGSLSWLRKQLQ | 2.75 ± 0.51 | 3.19 ± 0.48 | – | –
RDRLRSRLEALSTERDEIEDVKCQ [TRIM15] | 5.32 ± 0.15 | 5.44 ± 0.35 | – | –
REGDCAPEEKIWEELSVLEVFEGR [MAGEA3] | 5.08 ± 0.22 | 5.14 ± 0.11 | – | –
REITGVQAQPGEATSGPPGIQPGQ [PALM] | 5.37 ± 0.26 | 5.23 ± 0.2 | – | –
REKQLSHSLRAVSTDPPHHDHHDE [BEX1] | 5.37 ± 0.4 | 5.382 ± 0.051 | – | –
REQGPREQEPELSFLKQKEQLEAE [PBXIP1] | 5.5 ± 0.35 | 5.58 ± 0.33 | – | –
RERAVEWRERAVEKRERALEEVER [ZBED2] | 4.9 ± 0.71 | 5.08 ± 0.29 | – | –
REVAKELGLPYYETSVFDQFGIKD [RHOBTB1] | 3.18 ± 0.44 | 3.27 ± 0.29 | – | –
RFIIIFEQIRFVMKAHSFVRENVP [SOAT1] | 2.51 ± 0.39 | 2.65 ± 0.56 | – | –
RFIRERDRAVNDYPSLYYPEMYIL [CDC25B] | 2.49 ± 0.53 | 1.91 ± 0.29 | – | –
RFQDPAAASISDGDCDAREEKQRE [FAM219A] | 5.5 ± 0.4 | 5.46 ± 0.32 | – | –
